To fix the notation:
B1: Ubiquitin-protein ligase residues 30 to 86; numbered along this chain, Q05086 (parent)
chain: KHLIERYYHQLTEGCGNEACTNEFCASCPTFLRMDNNAAAIKALELYKINAKLCDPH

± gives the uncertainty stated by the source.

This series covers variants of B1. The experiment in a line: abundance fitness (aPCA) (normalised: wild type 0, dead -1); higher = more abundant; growth selection in yeast, the domain comes from the species named. The settings on record: Homo sapiens.
With KHLIERYYHQLTEGCGNELCTNEFCASCPTFLRMDNNAAAIKALELYKINAKLCDPH, the abundance fitness is -0.045 ± 0.053. As to KHLIERYYHQLTEGCGNEGCTNEFCASCPTFLRMDNNAAAIKALELYKINAKLCDPH, the abundance fitness is -0.015 ± 0.05. For KHLIERYYHQLTEGCGNENCTNEFCASCPTFLRMDNNAAAIKALELYKINAKLCDPH, the abundance fitness was -0.015 ± 0.087. With KHLIERYYHQLTEGCGNEACTNEFCANCPTFLRMDNNAAAIKALELYKINAKLCDPH, the abundance fitness was -0.06 ± 0.1. For KHLIEHYYHQLTEGCGNEACTNEFCASCPTFLRMDNNAAAIKALELYKINAKLCDPH, the abundance fitness is -0.027 ± 0.046.

For KHLIELYYHQLTEGCGNEACTNEFCASCPTFLRMDNNAAAIKALELYKINAKLCDPH, the abundance fitness was -0.097 ± 0.041.

Take KHLIEIYYHQLTEGCGNEACTNEFCASCPTFLRMDNNAAAIKALELYKINAKLCDPH: the abundance fitness is -0.151 ± 0.05. In the case of KHLIERQYHQLTEGCGNEACTNEFCASCPTFLRMDNNAAAIKALELYKINAKLCDPH, the abundance fitness is -0.781 ± 0.1. In the case of KHLIERYYHQLTEGCGNEACTNEFCASCPTFLRMDNNAAAIFALELYKINAKLCDPH, the abundance fitness is -0.408 ± 0.21.

On to KHLIERYYHQLTEGCGNEACTNEFCASCPTFLGMDNNAAAIKALELYKINAKLCDPH, for which the abundance fitness stood at 0.014 ± 0.06. As to KHLIERYYHQLTEGCGNEACTNEFCASCPTFLTMDNNAAAIKALELYKINAKLCDPH, the abundance fitness was -0.025 ± 0.12. For KHLIERYYHQLTEGCGNEACTNEFCASCPTFLPMDNNAAAIKALELYKINAKLCDPH, the abundance fitness is -0.017 ± 0.13.

As for KHLIERYYHQLTEGCGNEACTNEFCASCPTFLLMDNNAAAIKALELYKINAKLCDPH, the abundance fitness was -0.148 ± 0.1.

Take KHLIERYYHQLTEGCGNEACTNEFCASCPTFLCMDNNAAAIKALELYKINAKLCDPH: the abundance fitness is -0.152 ± 0.11.

For KHLIERYYHQLTEGCGNEACTNESCASCPTFLRMDNNAAAIKALELYKINAKLCDPH, the abundance fitness was -0.033 ± 0.056. On to KHLIERYYHQLTEGCGNEACTNEFCASGPTFLRMDNNAAAIKALELYKINAKLCDPH, for which the abundance fitness is -0.183 ± 0.049. In the case of KHLIERYYHQLTEGCGNEACTNEFCASWPTFLRMDNNAAAIKALELYKINAKLCDPH, the abundance fitness was -0.16 ± 0.055. On to KHLIERYYHQLTEGCGNEACTNEFCASLPTFLRMDNNAAAIKALELYKINAKLCDPH, for which the abundance fitness was -0.217 ± 0.052. Regarding KHLIERYYHQLTEGCGNEACTNEFCASSPTFLRMDNNAAAIKALELYKINAKLCDPH, the abundance fitness was -0.064 ± 0.053. As for KHLIERYYHQLTEGCGNEACTNEFSASCPTFLRMDNNAAAIKALELYKINAKLCDPH, the abundance fitness is -0.741 ± 0.14. Then KHLIERYYHQLTEGCGNEACTNEFMASCPTFLRMDNNAAAIKALELYKINAKLCDPH, with -0.841 ± 0.15; and KHLIERYYHQLTEGCGNEACTNEFCASCPTFLRMDNNAQAIKALELYKINAKLCDPH, with -0.317 ± 0.12; and KHLIERYYHQLTEGCGNEACTNEFCASCPTFLRMDNNADAIKALELYKINAKLCDPH, with -0.605 ± 0.23. On to KHLIERYYHQLTEGCGVEACTNEFCASCPTFLRMDNNAAAIKALELYKINAKLCDPH, for which the abundance fitness is -0.05 ± 0.051. KHLIERYYHQLTEGCGSEACTNEFCASCPTFLRMDNNAAAIKALELYKINAKLCDPH: the abundance fitness was -0.034 ± 0.044. Then KHLIERYYHQLTEGCGNEACTNEFCASCPTFLRMDNNAAAWKALELYKINAKLCDPH, with -0.239 ± 0.063; and KHLIERYYHQLTEGCGNEACTNEFCASCPTFLRMDNNAAAKKALELYKINAKLCDPH, with 0.08 ± 0.089.

KHLIERYYHQLTEGCGNEACTNEFCASCPTFLRMDNNAAAAKALELYKINAKLCDPH: the abundance fitness was 0.012 ± 0.059.

Regarding KHLIERYYHQLTEGCGNEACTNEFCASCPTFLRMDNNAAAIKALELYKICAKLCDPH, the abundance fitness is -0.057 ± 0.09. Then KHLIERYYHQLTEGCGNEACTNEFCASCPTFIRMDNNAAAIKALELYKINAKLCDPH, with -0.036 ± 0.14. Regarding KHLIERYYHQLTEGCGNEACTNEFCASCPTFDRMDNNAAAIKALELYKINAKLCDPH, the abundance fitness is -0.049 ± 0.11.

On to KHLIERYYHQLTEGCGNEACTNEFCASCPTFVRMDNNAAAIKALELYKINAKLCDPH, for which the abundance fitness was 0.009 ± 0.067. KHLIERYYHQLTEGCGNEACTNEFCASCPTFLRMDNNAAAIKALELYKINAKLCDSH: the abundance fitness was -0.081 ± 0.082. As to KHLIERYYHQLTEGLGNEACTNEFCASCPTFLRMDNNAAAIKALELYKINAKLCDPH, the abundance fitness is -1 ± 0.084. Regarding KHLIERYYHQLTEGCGNEACTNEFCASCPTFLRMDNNAAAIKALELYKINAKMCDPH, the abundance fitness is -0.073 ± 0.11.

For KHLIERYYHQLTEGCGNEACTNEFCASCPTFLRMDNNAAAIKALELYKINAKICDPH, the abundance fitness is -0.032 ± 0.15.

As to KHLIERYYHQLTEGCGNEACTNEFCASCPTFLRMDNNAAAIKALELYKINAKVCDPH, the abundance fitness is -0.056 ± 0.067. On to KHLIERYYHQLTEGCGNEACTNEFCASCPTFLRMDNNAAAIKALELYWINAKLCDPH, for which the abundance fitness is -0.357 ± 0.085.

On to KHLIERYYHQLTEGCGNEACTNEFCASCPTFLRMDNNAAAIKALELYIINAKLCDPH, for which the abundance fitness was -0.607 ± 0.18. As to KHLIERYYHQLTEGCGNEACTNEFCASCPTFLRMDNNAAAIKALELYPINAKLCDPH, the abundance fitness was -0.222 ± 0.092. For the variant KHLIERYYHQLTEGCGNEACTNEFCASCPTFLRMDNNAAAIKALELYQINAKLCDPH, the abundance fitness was -0.109 ± 0.1. As for KHLIERYYHQLTEGCGNEACTNEFCASCPTFLRMDNNAAAIKALELYTINAKLCDPH, the figure is -0.122 ± 0.079; as for KHLIERYYHQLTEGCGNEACTNEFCASCPTFLRMDNFAAAIKALELYKINAKLCDPH, -0.542 ± 0.16; as for KHLIERYYHQLTEGCGNEACTNEFCASCPTFLRMDNSAAAIKALELYKINAKLCDPH, -0.072 ± 0.069. As for KHLIERYYHQLTEGCGNEACTNEFCASCPTFLRMDNNAAAIKALEYYKINAKLCDPH, the figure is -0.312 ± 0.13. Turning to KHLIERYYHQLTEGCGNEACTNEFCASCPTFLRMDNNAAAIKALEHYKINAKLCDPH, the abundance fitness was 0.035 ± 0.11. As for KHLIERYYHQLTEGCGNEACTNEFCASCPTFLRMDNNAAAIKALEFYKINAKLCDPH, the figure is -0.063 ± 0.13.

The values above are taken from the Human Domainome abundance scans (Beltran et al. 2025).
